Data taken from patent publication US20240026334.

Molecular target: type I collagen (Rattus norvegicus) (UniProt P02454+P02466)
Details: maximum binding at 12-18% DNA mass fraction; binding decreases at higher DNA fraction, no fibers at ~45% DNA; collagen species not stated in this example

type I collagen (Rattus norvegicus), sequence (P02454 152-1207, chain 1 of 2): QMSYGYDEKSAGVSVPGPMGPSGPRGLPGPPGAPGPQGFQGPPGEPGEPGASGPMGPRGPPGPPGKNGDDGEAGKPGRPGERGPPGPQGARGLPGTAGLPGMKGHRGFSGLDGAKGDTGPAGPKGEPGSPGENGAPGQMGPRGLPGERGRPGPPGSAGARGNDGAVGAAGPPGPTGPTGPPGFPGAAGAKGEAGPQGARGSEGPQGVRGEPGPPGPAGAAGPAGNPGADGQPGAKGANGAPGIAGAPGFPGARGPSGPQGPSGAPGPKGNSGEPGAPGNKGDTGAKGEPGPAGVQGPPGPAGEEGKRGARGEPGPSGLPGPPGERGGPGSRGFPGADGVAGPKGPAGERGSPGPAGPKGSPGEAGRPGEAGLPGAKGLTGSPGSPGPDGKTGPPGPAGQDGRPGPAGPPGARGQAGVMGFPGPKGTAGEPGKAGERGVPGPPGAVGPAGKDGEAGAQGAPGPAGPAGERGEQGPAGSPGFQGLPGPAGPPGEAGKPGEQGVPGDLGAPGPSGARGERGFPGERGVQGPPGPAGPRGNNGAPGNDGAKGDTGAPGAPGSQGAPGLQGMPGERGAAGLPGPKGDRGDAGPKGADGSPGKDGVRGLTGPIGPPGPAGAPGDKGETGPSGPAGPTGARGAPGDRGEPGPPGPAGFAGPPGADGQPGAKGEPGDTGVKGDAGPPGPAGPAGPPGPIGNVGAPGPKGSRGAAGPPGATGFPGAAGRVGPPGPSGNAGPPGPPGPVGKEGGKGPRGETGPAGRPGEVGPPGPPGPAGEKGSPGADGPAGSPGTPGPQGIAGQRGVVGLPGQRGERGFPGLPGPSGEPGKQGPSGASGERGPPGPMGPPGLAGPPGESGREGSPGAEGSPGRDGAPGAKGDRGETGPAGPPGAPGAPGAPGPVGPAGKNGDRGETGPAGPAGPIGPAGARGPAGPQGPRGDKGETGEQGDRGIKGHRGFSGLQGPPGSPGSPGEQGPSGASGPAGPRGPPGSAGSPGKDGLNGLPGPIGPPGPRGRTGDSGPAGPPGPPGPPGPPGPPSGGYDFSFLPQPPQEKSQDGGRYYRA
type I collagen (Rattus norvegicus), sequence (P02466 86-1125, chain 2 of 2): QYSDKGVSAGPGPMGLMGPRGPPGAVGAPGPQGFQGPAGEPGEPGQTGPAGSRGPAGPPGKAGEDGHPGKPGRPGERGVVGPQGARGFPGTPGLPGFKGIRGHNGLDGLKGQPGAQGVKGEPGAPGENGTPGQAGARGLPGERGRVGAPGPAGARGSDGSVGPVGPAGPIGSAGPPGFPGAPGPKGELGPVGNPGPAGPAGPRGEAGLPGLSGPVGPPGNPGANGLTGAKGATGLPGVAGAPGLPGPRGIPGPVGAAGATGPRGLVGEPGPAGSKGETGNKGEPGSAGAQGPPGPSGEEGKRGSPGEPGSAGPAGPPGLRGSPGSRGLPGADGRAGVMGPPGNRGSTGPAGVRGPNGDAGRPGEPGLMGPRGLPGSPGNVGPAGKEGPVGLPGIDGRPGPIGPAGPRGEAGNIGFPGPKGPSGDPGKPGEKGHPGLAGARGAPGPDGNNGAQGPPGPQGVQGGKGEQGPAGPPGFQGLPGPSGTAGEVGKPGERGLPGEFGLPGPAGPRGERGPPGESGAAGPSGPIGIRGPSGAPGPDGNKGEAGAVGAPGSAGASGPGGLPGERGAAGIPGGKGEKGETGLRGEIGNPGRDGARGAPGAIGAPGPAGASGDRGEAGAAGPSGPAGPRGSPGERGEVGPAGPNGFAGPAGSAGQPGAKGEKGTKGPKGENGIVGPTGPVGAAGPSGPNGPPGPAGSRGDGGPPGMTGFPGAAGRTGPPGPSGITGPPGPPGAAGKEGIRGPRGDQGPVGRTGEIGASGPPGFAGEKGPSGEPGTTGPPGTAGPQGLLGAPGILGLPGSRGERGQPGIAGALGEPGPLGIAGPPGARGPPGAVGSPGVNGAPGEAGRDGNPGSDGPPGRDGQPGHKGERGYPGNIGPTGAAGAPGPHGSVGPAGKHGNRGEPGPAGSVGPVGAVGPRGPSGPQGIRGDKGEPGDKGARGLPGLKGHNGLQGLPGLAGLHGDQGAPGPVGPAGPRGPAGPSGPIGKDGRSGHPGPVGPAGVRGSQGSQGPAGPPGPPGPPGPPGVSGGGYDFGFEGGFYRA

Sequence: AATTTAGGAGCTGAAGGTCAGGGCACCAGCAGCCTTTGGAAGCCTAVAGGACAACAGTCAGCCTGGCTAGAAAAAAAAACAATGTCACAG [90 nt random ssDNA oligomer]
- binding (ug ssDNA/ug collagen): 0.15
